Data published in PMC5302818.

T1: BAK1-CFP (Arabidopsis), Q94F62
T1 chain: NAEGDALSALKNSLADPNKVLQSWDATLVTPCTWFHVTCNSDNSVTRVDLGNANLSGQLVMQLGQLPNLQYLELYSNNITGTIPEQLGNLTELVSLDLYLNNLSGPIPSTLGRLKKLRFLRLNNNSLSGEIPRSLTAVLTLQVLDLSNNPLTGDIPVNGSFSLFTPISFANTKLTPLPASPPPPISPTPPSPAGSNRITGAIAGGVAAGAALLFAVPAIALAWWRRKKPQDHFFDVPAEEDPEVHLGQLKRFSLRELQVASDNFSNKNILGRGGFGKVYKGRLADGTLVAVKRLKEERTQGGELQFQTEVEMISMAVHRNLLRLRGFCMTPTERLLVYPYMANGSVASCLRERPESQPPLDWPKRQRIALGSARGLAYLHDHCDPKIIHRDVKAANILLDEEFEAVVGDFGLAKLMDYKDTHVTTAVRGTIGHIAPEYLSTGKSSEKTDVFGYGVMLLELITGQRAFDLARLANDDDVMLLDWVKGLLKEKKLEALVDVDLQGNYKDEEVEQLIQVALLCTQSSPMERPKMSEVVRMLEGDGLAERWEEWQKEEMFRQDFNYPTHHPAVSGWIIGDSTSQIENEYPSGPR


Legend:
BIR1-CFP (Arabidopsis) = test: cross number and brightness (Cross N&B) fluorescence fluctuation analysis; leaf disks of N. benthamiana transiently expressing AtRGS1-YFP with BIR1-CFP or BAK1-CFP; time series of 100 confocal images; SimFCS analysis
[1] = target: T1, BAK1-CFP (Arabidopsis), Q94F62; test: as above; conditions: remark: other sources report otherwise

stoichiometry N (BIR1-CFP (Arabidopsis))	stoichiometry N [1]	Binder
1		AtRGS1-YFP (natural protein) MASGCALHGGCPSDYVAVAISVICFFVLLSRSVLPCLIHKAPRTNSSSFWIPVIQVISSFNLLFSIMMSVNLLRFRTKHWWRYCYLWAVWIEGPLGFGLLMSCRITQAFQLYFIFVKKRLPPVKSYIFLPLVLLPWIFGAAIIHATKPLNDKCHMGLQWTFPVAGLHALYVLALIAFTRAVRHVEFRFDELRDLWKGILVSATSIVIWVTAFVLNEIHEEISWLQVASRFVLLVTGGILVVVFFSISSNQPLLSQISLKKRQNFEFQRMGQALGIPDSGLLFRKEEFRPVDPNEPLDKLLLNKRFRHSFMEFADSCYAGETLHFFEEVYEHGKIPEDDSIRRIYMARHIMEKFIVAGAEMELNLSHKTRQEILTTQDLTHTDLFKNALNEVMQLIKMNLVRDYWSSIYFIKFKEEESCHEAMHKEGYSFSSPRLSSVQGSDDPFYQEHMSKSSRCSSPG
	1	AtRGS1-YFP, Q8H1F2 1-459 (natural protein) MASGCALHGGCPSDYVAVAISVICFFVLLSRSVLPCLIHKAPRTNSSSFWIPVIQVISSFNLLFSIMMSVNLLRFRTKHWWRYCYLWAVWIEGPLGFGLLMSCRITQAFQLYFIFVKKRLPPVKSYIFLPLVLLPWIFGAAIIHATKPLNDKCHMGLQWTFPVAGLHALYVLALIAFTRAVRHVEFRFDELRDLWKGILVSATSIVIWVTAFVLNEIHEEISWLQVASRFVLLVTGGILVVVFFSISSNQPLLSQISLKKRQNFEFQRMGQALGIPDSGLLFRKEEFRPVDPNEPLDKLLLNKRFRHSFMEFADSCYAGETLHFFEEVYEHGKIPEDDSIRRIYMARHIMEKFIVAGAEMELNLSHKTRQEILTTQDLTHTDLFKNALNEVMQLIKMNLVRDYWSSIYFIKFKEEESCHEAMHKEGYSFSSPRLSSVQGSDDPFYQEHMSKSSRCSSPG
